Holding throughout (experiment): AUC
Series [1] deals with human βA3-crystallin (human) (UniProt P05813).
The target of series [2] is βB1ΔN47, tryptic product of murine βB1-crystallin (residues 1-47 removed) (murine).
Series [3] concerns the target βB1ΔN56, murine βB1-crystallin with N-terminal residues 1-56 deleted (murine).
The series “AUC” deals with the molecule itself.
The target in a further series is T1, murine βB1-crystallin (murine, UniProt Q9WVJ5 1-250).
T1 sequence (looked up): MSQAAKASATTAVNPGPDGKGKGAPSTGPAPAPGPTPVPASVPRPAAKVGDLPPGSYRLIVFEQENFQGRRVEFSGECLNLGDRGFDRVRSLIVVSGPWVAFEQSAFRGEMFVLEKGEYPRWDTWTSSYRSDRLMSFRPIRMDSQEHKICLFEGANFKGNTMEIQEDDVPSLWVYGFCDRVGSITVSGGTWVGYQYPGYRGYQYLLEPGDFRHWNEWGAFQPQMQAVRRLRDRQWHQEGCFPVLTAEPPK

As usually defined, the Kd is a measure of binding affinity in units of concentration. A low value points to higher affinity. As a reminder, the stoichiometry N is the number of molecules, sites or subunits per partner or assembly.

In series [1], “βB1ΔN47, tryptic product of murine βB1-crystallin (residues 1-47 removed) (domain or fragment)” registered a Kd of 200 nM. Moreover, in series [2], the dissociation constant (Kd) came to 1400 nM and the stoichiometry N worked out at 2.
With “βB1ΔN56, murine βB1-crystallin with N-terminal residues 1-56 deleted (domain or fragment)”, the stoichiometry N in series [3] was found to be 4.

B1: βA3ΔN30, human βA3-crystallin with N-terminal residues 1-30 deleted and residue 31 replaced by glycine (domain or fragment, UniProt P05813-1 31-215, looked up)
chain: GKITIYDQENFQGKRMEFTSSCPNVSERSFDNVRSLKVESGAWIGYEHTSFCGQQFILERGEYPRWDAWSGSNAYHIERLMSFRPICSANHKESKMTIFEKENFIGRQWEISDDYPSLQAMGWFNNEVGSMKIQSGAWVCYQYPGYRGYQYILECDHHGGDYKHWREWGSHAQTSQIQSIRRIQQ
As to B1, in “AUC”, the Kd turned out to be 100 nM and the “stoichiometry N” value is 2. In the series with murine βB1-crystallin, this molecule returned a Kd of 5000 nM.

(Values after PMC2764403 (Biochemistry, 2009).)
